Measurements from article PMC3983062.

Target: RRV ORF45 (R45), as expressed in RRV-infected rhesus fibroblasts (Rhesus monkey rhadinovirus (RRV), strain H26-95) (UniProt Q9J2K2)
Assay: FRET or BRET; filter-based processed FRET (PFRET) on fixed RRV-infected RhF stained with labelled antibodies (Alexa488 donor, Alexa555 acceptor); regions of interest in the nuclei

| Substance | r (distance between the fluorophores, from FRET) [nm] |
| --- | --- |
| pERK2 (phosphorylated, activated ERK2), endogenous in rhesus fibroblasts (from UniProt F7ECR3 1-360) (natural protein) | 4.5 |
| RSK2 (p90 ribosomal S6 kinase 2), endogenous in rhesus fibroblasts (natural protein) | 4.7 |
